Patent US20150010526, “EVALUATION AND IMPROVEMENT OF NUCLEASE CLEAVAGE SPECIFICITY” (President and Fellows of Harvard College, published 2015)

Legend:
[1] = target: CCR5-224 ZFN pair expressed in K562 (artificial); experiment: cell_activity; K562; conditions: tags: FokI cleavage domain
Description: We were unable to obtain site-specific PCR amplification products for three CCR5-224 sites and seven VF2468 sites and therefore could not analyze the occurrence of NHEJ at those loci. Taken together, these observations indicate that off-target sequences identified through the in vitro selection method include many DNA sequences that can be cleaved by ZFNs in human cells.
To deliver ZFN expression plasmids into cells, 15 μg of either active CCR5-224 ZFN DNA or empty vector DNA were used to Nucleofect 2×10⁶ K562 cells in duplicate reactions following the manufacturer's instructions for Cell Line Nucleofector Kit V (Lonza). GFP-positive cells were isolated by FACS 24 hours post-transfection, expanded, and harvested five days post-transfection with the QIAamp DNA Blood Mini Kit (Qiagen).
PCR for 37 potential CCR5-224 substrates and 97 potential VF2468 substrates was performed with Phusion DNA Polymerase (NEB) and primers “[ZFN] […] fwd” and “[ZFN] […] rev” (Table 9) in 1× Phusion HF Buffer supplemented with 3% DMSO. Primers were designed using Primer3³³. The amplified DNA was purified with the Qiagen PCR Purification Kit, eluted with 10 mM Tris-HCl, pH 8.5, and quantified by 1K Chip on a LabChip GX instrument (Caliper Life Sciences) and combined into separate equimolar pools for the catalytically active and empty vector control samples. PCR products were not obtained for 3 CCR5 sites and 7 VF2468 sites, which excluded these samples from further analysis. Multiplexed Illumina library preparation was performed according to the manufacturer's specifications, except that AMPure XP beads (Agencourt) were used for purification following adapter ligation and PCR enrichment steps. Illumina indices 11 (“GGCTAC”) and 12 (“CTTGTA”) were used for ZFN-treated libraries while indices 4 (“TGACCA”) and 6 (“GCCAAT”) were used for the empty vector controls. Library concentrations were quantified by KAPA Library Quantification Kit for Illumina Genome Analyzer Platform (Kapa Biosystems). Equal amounts of the barcoded libraries derived from active- and empty vector-treated cells were diluted to 10 nM and subjected to single read sequencing on an Illumina HiSeq 2000 at the Harvard University FAS Center for Systems Biology Core facility. Sequences were analyzed using Protocol 9 for active ZFN samples and empty vector controls.

[2] = target: VF2468 ZFN pair expressed in K562 (artificial); experiment: cell_activity; K562; conditions: tags: FokI cleavage domain
Chain of VF2468 ZFN pair expressed in K562 (artificial) (chain, as listed by the source, chain 1 of 2): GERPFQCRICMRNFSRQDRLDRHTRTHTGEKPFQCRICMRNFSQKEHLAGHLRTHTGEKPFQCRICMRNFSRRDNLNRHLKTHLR
Chain of VF2468 ZFN pair expressed in K562 (artificial) (chain, as listed by the source, chain 2 of 2): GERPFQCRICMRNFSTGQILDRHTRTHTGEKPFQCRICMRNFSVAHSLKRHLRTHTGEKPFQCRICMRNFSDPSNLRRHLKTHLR

CCR5-224 ZFN pair = CCR5-224 ZFN pair (artificial); experiment: cleavage_in_vitro; ZFN amount for 50% cleavage of 8 nM linear substrate, 4 h 37 C, 10 mM Mg acetate; conditions: tags: N-terminal FLAG, FokI cleavage domain
Chain of CCR5-224 ZFN pair (artificial) (chain, as listed by the source, chain 1 of 2): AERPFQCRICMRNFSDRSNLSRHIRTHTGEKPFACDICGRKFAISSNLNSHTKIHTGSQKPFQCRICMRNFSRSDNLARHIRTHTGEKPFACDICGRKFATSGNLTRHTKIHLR
Chain of CCR5-224 ZFN pair (artificial) (chain, as listed by the source, chain 2 of 2): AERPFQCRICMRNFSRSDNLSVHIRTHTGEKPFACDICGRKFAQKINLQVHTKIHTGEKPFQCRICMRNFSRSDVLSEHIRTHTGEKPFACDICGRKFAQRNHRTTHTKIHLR
Description: (§1) FIGS. 6A-D. Expression and quantification of ZFNs. Western blots for CCR5-224 and VF2468 are shown (a) for the ZFN samples used in the in vitro selection, and (b) for quantification. (c) Known quantities of N-terminal FLAG-tagged bacterial alkaline phosphatase (FLAG-BAP) were used to generate a standard curve for ZFN quantification. […] (d) Gels are shown of activity assays of CCR5-224 and VF2468 on an 8 nM linear substrate containing one target cleavage site. The ZFNs were each incubated with their respective substrate for 4 hours at 37° C. DNA in the “+lysate” lane was incubated with an amount of in vitro transcription/translation mixture equivalent to that used in the 2.5 nM ZFN reaction. ZFN-mediated cleavage results in two linear fragments approximately 700 bp and 300 bp in length. 2 nM CCR5-224 and 1 nM VF2468 were the amounts required for 50% cleavage of the linear substrate.
(§2) Test substrates for CCR5-224 and VF2468 were constructed by cloning into the HindIII/XbaI sites of pUC19. PCR with primers “test fwd” and “test rev” and Taq DNA polymerase yielded a linear 1 kb DNA that could be cleaved by the appropriate ZFN into two fragments of sizes ˜300 bp and ˜700 bp. […] Reactions were purified with the Qiagen PCR Purification Kit and analyzed on 1% TAE-agarose gels.

VF2468 ZFN pair = VF2468 ZFN pair (artificial); experiment: cleavage_in_vitro; ZFN amount for 50% cleavage of 8 nM linear substrate, 4 h 37 C, 10 mM Mg acetate; FIG. 9 legend gives spacer as TCGAA; conditions: tags: N-terminal FLAG, FokI cleavage domain
Description: as §1, §2

Binder | activity [1] | activity [2] | other results
CCR5-224 site 25 WBSCR17 (dsDNA) DNA 1: GTTATCCTCAGCAAACTAAAACTGGAACAG DNA 2: CTGTTCCAGTTTTAGTTTGCTGAGGATAAC | 0.12 % indels |  | 
VF2468 site 68 PDE9A (dsDNA) DNA 1: AGCACCGTCCCCCTCAGTGAGGC DNA 2: GCCTCACTGAGGGGGACGGTGCT |  | 0.28 % indels | 
CCR5-224 site 9 (dsDNA) DNA 1: GTCATCTTCATCAAAAGGAACTGCAAAAC DNA 2: GTTTTGCAGTTCCTTTTGATGAAGATGAC | 0.035 % indels |  | 
VF2468 site 18 (dsDNA) DNA 1: AGCAGAGTCAGACTTGAGTGAGGT DNA 2: ACCTCACTCAAGTCTGACTCTGCT |  | 0.1 % indels | 
VF2468 site 72 (dsDNA) DNA 1: AGAAACGTCGTGGAGGAGTGAGGG DNA 2: CCCTCACTCCTCCACGACGTTTCT |  | 0.042 % indels | 
CCR5-224 site 11 TACR3 (dsDNA) DNA 1: GTCATCTTCATCAGCATAAACTGTAAAGT DNA 2: ACTTTACAGTTTATGCTGATGAAGATGAC | 0.34 % indels |  | 
VF2468 site 87 (dsDNA) DNA 1: AGCATTGTCTCATGTGAGTGAGGT DNA 2: ACCTCACTCACATGAGACAATGCT |  | 0.6 % indels | 
VF2468 site 80 (dsDNA) DNA 1: AGCACGGTCATGATGAGTGAGGC DNA 2: GCCTCACTCATCATGACCGTGCT |  | 0.041 % indels | 
VF2468 site 73 (dsDNA) DNA 1: AGCAAAGTCTGTACTGAGTGAGGG DNA 2: CCCTCACTCAGTACAGACTTTGCT |  | 1.3 % indels | 
CCR5-224 site 15 KCNB2 (dsDNA) DNA 1: ATGTTCCTCATCTCCCGAAACTGCAAATG DNA 2: CATTTGCAGTTTCGGGAGATGAGGAACAT | 0.071 % indels |  | 
CCR5-224 site 1 CCR5 (dsDNA) DNA 1: GTCATCCTCATCCTGATAAACTGCAAAAG DNA 2: CTTTTGCAGTTTATCAGGATGAGGATGAC | 44 % indels |  | EC50 (CCR5-224 ZFN pair): 2 nM
CCR5-224 site 3 BTBD10 promoter (dsDNA) DNA 1: GTTTTCCTCATCAAAGCAAACTGCAAAAT DNA 2: ATTTTGCAGTTTGCTTTGATGAGGAAAAC | 0.07 % indels |  | 
CCR5-224 site 16 (dsDNA) DNA 1: GTCTTCCTGATGCTACCAAACTGGAAAAG DNA 2: CTTTTCCAGTTTGGTAGCATCAGGAAGAC | 0.019 % indels |  | 
CCR5-224 site 2 CCR2 (dsDNA) DNA 1: GTCGTCCTCATCTTAATAAACTGCAAAAA DNA 2: TTTTTGCAGTTTATTAAGATGAGGACGAC | 10 % indels |  | 
VF2468 site 23 (dsDNA) DNA 1: AGCAGCGACGCCTGGGAGTGAGGT DNA 2: ACCTCACTCCCAGGCGTCGCTGCT |  | 1.1 % indels | 
CCR5-224 site 21 (dsDNA) DNA 1: GTCAACCTCAACACCTACAGACTGCAAAAG DNA 2: CTTTTGCAGTCTGTAGGTGTTGAGGTTGAC | 0.06 % indels |  | 
CCR5-224 site 14 (dsDNA) DNA 1: GTCCTGCTCAGCAAAAGAAACTGAAAAAG DNA 2: CTTTTTCAGTTTCTTTTGCTGAGCAGGAC | 0.025 % indels |  | 
VF2468 site 79 (dsDNA) DNA 1: AGCACCGTGGCTTCGAGTGAGGC DNA 2: GCCTCACTCGAAGCCACGGTGCT |  | 0.029 % indels | 
VF2468 site 1 VEGF-A promoter (dsDNA) DNA 1: AGCAGCGTCTTCGAGAGTGAGGA DNA 2: TCCTCACTCTCGAAGACGCTGCT |  |  | EC50 (VF2468 ZFN pair): 1 nM
VF2468 site 11 PTK2B (dsDNA) DNA 1: AGCAGCGTCTCCCTTGAGTGATGG DNA 2: CCATCACTCAAGGGAGACGCTGCT |  | 0.04 % indels | 
